Measured values taken from paper PMC11524583, “Neurons enhance blood–brain barrier function via upregulating claudin-5 and VE-cadherin expression due to glial cell line-derived neurotrophic factor secretion” (eLife, 2024).
Several values for one entry are separate records, joined by “and”; a condition that tells them apart may be missing. Identical values can stand only once.

Key:
Assay type in all cases: cell-based, Homo sapiens
claudin-5 = experiment: Western blot of claudin-5 expression in hCMEC/D3 cells
Summary of the method: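 hCMEC/D3 cells were cultured in U251/SH-SY5Y co-culture conditioned medium or 200 pg/ml GDNF, with or without 0.25–1.0 μg/ml anti-GDNF antibody, for 6 days; alternatively, after 10 nM siRNA or FOXO1 plasmid transfection, cells received GDNF medium for 72 hr. RIPA lysates were analysed by SDS-PAGE immunoblot with ECL detection.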

ETS1 = experiment: Western blot of total and nuclear ETS1 in hCMEC/D3 cells; conditions: for ETS1/β-actin Relative Expression, Mean / ETS1/Lamin B Relative Expression, Mean: group mean; for ETS1/β-actin Relative Expression / ETS1/Lamin B Relative Expression: individual replicates
Protocol: (§1) Whole-cell and tissue lysates, nucleoprotein, and cytoplasmic protein were prepared using RIPA Lysis Buffer (Beyotime, Shanghai, China) as the described method ([Wu et al., 2021]). Proteins were separated through sodium dodecyl sulfate–polyacrylamide gel electrophoresis and transferred onto nitrocellulose or polyvinylidene difluoride membranes. The membranes were blocked with 5% skim milk and incubated with corresponding primary antibodies at 4°C overnight. After being washed with Tris-buffered saline Tween buffer, the membranes were incubated with secondary antibodies (Cell Signaling Technology, MA, USA) at 1:3000 dilution: Anti-mouse IgG, HRP-linked Antibody (#7076), Anti-rabbit IgG, HRP-linked Antibody (#7074). Protein levels were visualized using a highly sensitive ECL western blotting substrate and a gel imaging system (Tanon Science & Technology, Shanghai, China).
Here, hCMEC/D3 cells were plated in the plates or culture dishes at 6 × 10^4 cells/cm^2 and transfected with 10 nM of negative control or human FOXO1, ETS1, and CDH5 siRNA (Tsingke Biotechnology, Beijing, China) for 12 hr using Lipofectamine 3000 (Invitrogen, Carlsbad, CA, USA) reagent according to the manufacturer’s instructions. Cells were then incubated with a medium containing GDNF for 72 hr.

p-JNK/JNK = experiment: Western blot of p-JNK/JNK in hCMEC/D3 cells
Protocol: as §1

[1] = test system: hCMEC/D3 mono-culture BBB model; experiment: TEER of hCMEC/D3 mono-culture BBB model; conditions: Figure 2M; Day3; individual replicates
[2] = relative to Con (mean 1.000), mean of 4, Figure 3C
[3] = relative to Con (mean 1.000), single replicates, Figure 3C

B1: GDNF: glial cell line-derived neurotrophic factor, recombinant protein (R&D system) (protein, UniProt P39905 78-211, looked up)
Glial cell line-derived …: SPDKQMAVLPRRERNRQAAAANPENSRGKGRRGQRGKNRGCVLTAIHLNVTDLGLGYETKEELIFRYCSGSCDAAETTYDKILKNLSRNRRLVSDKVGQACCRPIAFDDDLSFLDDNLVYHILRKHSAKRCGCI
- Claudin-5/β-actin Relative Expression, Mean (claudin-5; 50pg, Figure 2D, Con = 1.000): 1.434
- Claudin-5/β-actin Relative Expression (claudin-5; 50pg, Figure 2D, relative to Con, single replicates): 1.162 and 1.622 and 1.551 and 1.402
- Claudin-5/β-actin Relative Expression, Mean (claudin-5; 100pg, Figure 2D, Con = 1.000): 1.645
- Claudin-5/β-actin Relative Expression (claudin-5; 100pg, Figure 2D, relative to Con, single replicates): 1.855 and 1.384 and 1.893 and 1.449
- Claudin-5/β-actin Relative Expression, Mean (claudin-5; 200pg, Figure 2D, Con = 1.000): 2.035
- Claudin-5/β-actin Relative Expression (claudin-5; 200pg, Figure 2D, relative to Con, single replicates): 2.027 and 2.014 and 1.765 and 2.333
- Claudin-5/β-actin Mean (claudin-5; Figure 2I, hCMEC/D3 cells, group mean, relative to Con): 1.520
- Claudin-5/β-actin Relative Expression (claudin-5; Figure 2I, hCMEC/D3 cells, individual replicates, relative to Con): 1.748 and 1.509 and 1.594 and 1.229
- Claudin-5/β-actin Mean (claudin-5; Figure 2K, hCMEC/D3 cells, group mean, relative to Con): 1.490
- Claudin-5/β-actin Relative Expression (claudin-5; Figure 2K, hCMEC/D3 cells, individual replicates, relative to Con): 1.399 and 1.426 and 1.661 and 1.475
- Claudin-5/β-actin Relative Expression, Mean (claudin-5; Figure 5G, hCMEC/D3 cells, group mean, NC = 1.000): 1.393
- Claudin-5/β-actin Relative Expression (claudin-5; Figure 5G, hCMEC/D3 cells, single replicates, relative to NC group): 1.279 and 1.343 and 1.470 and 1.479
- claudin-5 expression (claudin-5; hCMEC/D3 cells incubated with conditioned medium or neurotrophic factor vs normal medium): induced the expression of claudin-5 and VE-cadherin in a concentration-dependent manner
- Claudin-5/β-actin Relative Expression, Mean (claudin-5; relative to Con (mean 1.000), mean of 4, Figure 3A): 1.789
- Claudin-5/β-actin Relative Expression, Mean (claudin-5; relative to Con (mean 1.000), mean of 4, Figure 3B): 1.788
- Claudin-5/β-actin Relative Expression, Mean (claudin-5; [2]): 2.325
- Claudin-5/β-actin Relative Expression, Mean (claudin-5; relative to Con (mean 1.000), mean of 4, Figure 3D): 1.421
- Claudin-5/β-actin Relative Expression (claudin-5; relative to Con (mean 1.000), single replicates, Figure 3A): 1.761 and 1.657 and 1.692 and 2.046
- Claudin-5/β-actin Relative Expression (claudin-5; relative to Con (mean 1.000), single replicates, Figure 3B): 1.594 and 2.146 and 1.495 and 1.917
- Claudin-5/β-actin Relative Expression (claudin-5; [3]): 2.223 and 2.345 and 2.874 and 1.857
- Claudin-5/β-actin Relative Expression (claudin-5; relative to Con (mean 1.000), single replicates, Figure 3D): 1.649 and 1.456 and 1.174 and 1.405
- ETS1/β-actin Relative Expression, Mean (ETS1; Figure 5A, Con = 1.000): 1.877
- ETS1/β-actin Relative Expression (ETS1; Figure 5A, relative to Con): 1.777 and 1.712 and 2.125 and 1.893
- ETS1/Lamin B Relative Expression, Mean (ETS1; Figure 5B, Con = 1.000): 1.560
- ETS1/Lamin B Relative Expression (ETS1; Figure 5B, relative to Con): 1.659 and 1.595 and 1.316 and 1.670
- ETS1/β-actin Relative Expression, Mean (ETS1; Figure 5C, Con = 1.000, GDNF group of LY and U0 inhibitor experiment): 1.287
- ETS1/β-actin Relative Expression (ETS1; Figure 5C, relative to Con, GDNF group of LY and U0 inhibitor experiment): 1.182 and 1.224 and 1.389 and 1.354
- ETS1/Lamin B Relative Expression, Mean (ETS1; Figure 5D, Con = 1.000): 2.084
- ETS1/Lamin B Relative Expression (ETS1; Figure 5D, relative to Con): 1.875 and 2.209 and 2.073 and 2.180
- ETS1/β-actin Relative Expression, Mean (ETS1; Figure 5E, NC = 1.000): 1.499
- ETS1/β-actin Relative Expression (ETS1; Figure 5E, relative to NC): 1.466 and 1.523 and 1.519 and 1.490
- ETS1/Lamin B Relative Expression, Mean (ETS1; Figure 5F, NC = 1.000): 1.528
- ETS1/Lamin B Relative Expression (ETS1; Figure 5F, relative to NC): 1.629 and 1.498 and 1.595 and 1.392
- nuclear ETS1 expression (ETS1; hCMEC/D3 cells, US-CM or GDNF): significantly increased
- total ETS1 expression (ETS1; hCMEC/D3 cells, US-CM or GDNF): significantly increased
- phosphorylation of JNK (p-JNK/JNK; hCMEC/D3 cells, 200 pg/ml GDNF): did not stimulate
- p-JNK/JNK Relative Expression Mean (p-JNK/JNK; [2]): 1.172
- p-JNK/JNK Relative Expression (p-JNK/JNK; [3]): 1.036 and 1.122 and 1.219 and 1.311
- TEER [1]: 61.71 Ω·cm2 and 62.7 Ω·cm2 and 62.37 Ω·cm2
